Assay results published in US20240425572A1 (REGENXBIO, published 2024).

Biological target: T1, fragment of the LEM peptide having the amino acid sequence of LEMPSSLMLEVP (SEQ ID NO: 2)
T1 peptide: LEMPSSLMLEVP
Experiment: MSD binding assay (format for the fragment not detailed)
Experimental: LEM peptide specific rabbit polyclonal and monoclonal antibodies were produced using standard laboratory technologies. Binding affinity of the antibodies was assessed using MSD experiment performed according to the manufacturer's protocols. MSD plates were coated with 1 mg/ml of peptide in PBS and blocked with casein in PBS. Anti-rabbit sulfo-tagged antibody was used as the detection agent. Antibody binding specificity was assessed using control reactions that included the target peptide to inhibit binding. […] None of the antibodies tested can bind to a fragment of the LEM peptide having the amino acid sequence of […] (SEQ ID NO: 2).

B1: 130D2-1 (antibody, V domains shown)
VH: QSLAESGGRLVTPGTPLTLTCTVSGVDLSYYPMTWVRQAPGKGLEYIGIILHNGTSCYARWARGRFTISKTSTTVELRITSPTTEDTATYFCARASVASIVGSSDIWGPGTLVTVSS
VL: LVLTQTPSSVSAAVGGTVTINCQSSQSVYKNSALSWYQQKPGQPPKLLIYGASTLASGVPSRFSGNGSGTQFTLTISGVQCADAATYYCTGAINDEIHAFGGGTEVVVR
notes: Rabbit monoclonal IgG; also called 130D2-1 monoclonal anti-LEM antibody; anti-LEM mAb
- binding result: no binding
